These results are taken from the supplement of paper PMC6757056.

B1: library; a variant is named by its letters at N, in order (parent)
chain: GCUGUCACCGAGAAACUGUGAAGUAUAUCUUAAACCUGGGCACUUAAAAGAUAUAUGGAGUUAGUAGUGCAACCUGCUCGGUCUGAUGAGUCCNNNNNNGGACGAAACAGC

In data set [1] the parent is B1. Nature of the data set: normalized RNA/DNA level without ligand (relative to sTRSVctl = 100) (log10 (% of sTRSVctl)); HEK293T; ligand: cyclic di-GMP (c-di-GMP-II aptamer); higher = less ribozyme self-cleavage, higher mRNA level. The conditions noted are these: reporter: mCherry (pCS4076), ligand present: no. The essentials: (§1)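 Only sequences with at least 100 DNA reads were analyzed, from HEK293T cells transfected with 4 µg per 6-well well of ribozyme switch library plasmids 72 h before RNA extraction with EDTA. Any ligand was added 1 h before transfection. RNA level was defined as RNA over DNA reads, normalized to a spiked-in non-cleaving sequence or to the top sequences, then scaled and log-transformed. The top set was 25 sequences, and the scaling was ×100 followed by log10.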

The variants in data set [2] derive from B1. Nature of the data set: normalized RNA/DNA level with ligand (relative to sTRSVctl = 100) (log10 (% of sTRSVctl)); HEK293T; ligand: cyclic di-GMP (c-di-GMP-II aptamer); ligand concentration (+) RNA-Seq: 1 mM; higher = less ribozyme self-cleavage, higher mRNA level. The conditions noted are these: reporter: mCherry (pCS4076), ligand present: yes. The essentials:
as §1

± gives the standard deviation of the averaged measurements.

With GCUGUCACCGAGAAACUGUGAAGUAUAUCUUAAACCUGGGCACUUAAAAGAUAUAUGGAGUUAGUAGUGCAACCUGCUCGGUCUGAUGAGUCCCUAGCAGGACGAAACAGC [CUAGCA], the “normalized RNA/DNA level without ligand (log10)” value in data set [1] was 1.71 ± 0.064. Moreover, in data set [2], the “normalized RNA/DNA level with ligand (log10)” value stood at 1.78 ± 0.13.

Take GCUGUCACCGAGAAACUGUGAAGUAUAUCUUAAACCUGGGCACUUAAAAGAUAUAUGGAGUUAGUAGUGCAACCUGCUCGGUCUGAUGAGUCCCUAGCCGGACGAAACAGC [CUAGCC]: in data set [1], the “normalized RNA/DNA level without ligand (log10)” value was 1.77 ± 0.022. For the same variant, the “normalized RNA/DNA level with ligand (log10)” value in data set [2] was 1.83 ± 0.075.

Regarding GCUGUCACCGAGAAACUGUGAAGUAUAUCUUAAACCUGGGCACUUAAAAGAUAUAUGGAGUUAGUAGUGCAACCUGCUCGGUCUGAUGAGUCCCUAGCGGGACGAAACAGC [CUAGCG], the “normalized RNA/DNA level without ligand (log10)” value in data set [1] was determined as 1.772 ± 0.015. For the same variant, the “normalized RNA/DNA level with ligand (log10)” value in data set [2] came out at 1.85 ± 0.18.

Consider GCUGUCACCGAGAAACUGUGAAGUAUAUCUUAAACCUGGGCACUUAAAAGAUAUAUGGAGUUAGUAGUGCAACCUGCUCGGUCUGAUGAGUCCAUAGAUGGACGAAACAGC [AUAGAU], for which, in data set [1], the “normalized RNA/DNA level without ligand (log10)” value worked out at 1.58 ± 0.056. Also, the “normalized RNA/DNA level with ligand (log10)” value in data set [2] was 1.72 ± 0.12.

Take GCUGUCACCGAGAAACUGUGAAGUAUAUCUUAAACCUGGGCACUUAAAAGAUAUAUGGAGUUAGUAGUGCAACCUGCUCGGUCUGAUGAGUCCAUAGAGGGACGAAACAGC [AUAGAG]: the “normalized RNA/DNA level without ligand (log10)” value in data set [1] is 1.46 ± 0.13. In data set [2], the “normalized RNA/DNA level with ligand (log10)” value is 1.73 ± 0.082.

Take GCUGUCACCGAGAAACUGUGAAGUAUAUCUUAAACCUGGGCACUUAAAAGAUAUAUGGAGUUAGUAGUGCAACCUGCUCGGUCUGAUGAGUCCUUAGCCGGACGAAACAGC [UUAGCC]: in data set [1], the “normalized RNA/DNA level without ligand (log10)” value stood at 1.76 ± 0.082. For the same variant, the “normalized RNA/DNA level with ligand (log10)” value in data set [2] stood at 1.83 ± 0.13.

Regarding GCUGUCACCGAGAAACUGUGAAGUAUAUCUUAAACCUGGGCACUUAAAAGAUAUAUGGAGUUAGUAGUGCAACCUGCUCGGUCUGAUGAGUCCUUAGCGGGACGAAACAGC [UUAGCG], in data set [1], the “normalized RNA/DNA level without ligand (log10)” value was found to be 1.79 ± 0.032. Moreover, the “normalized RNA/DNA level with ligand (log10)” value in data set [2] was 1.86 ± 0.11.

Regarding GCUGUCACCGAGAAACUGUGAAGUAUAUCUUAAACCUGGGCACUUAAAAGAUAUAUGGAGUUAGUAGUGCAACCUGCUCGGUCUGAUGAGUCCUUAGCAGGACGAAACAGC [UUAGCA], the “normalized RNA/DNA level without ligand (log10)” value in data set [1] was 1.72 ± 0.052. The “normalized RNA/DNA level with ligand (log10)” value in data set [2] came to 1.83 ± 0.12.

Take GCUGUCACCGAGAAACUGUGAAGUAUAUCUUAAACCUGGGCACUUAAAAGAUAUAUGGAGUUAGUAGUGCAACCUGCUCGGUCUGAUGAGUCCGUAGCCGGACGAAACAGC [GUAGCC]: in data set [1], the “normalized RNA/DNA level without ligand (log10)” value was 1.69 ± 0.071. Moreover, the “normalized RNA/DNA level with ligand (log10)” value in data set [2] worked out at 1.8 ± 0.11.

For the variant GCUGUCACCGAGAAACUGUGAAGUAUAUCUUAAACCUGGGCACUUAAAAGAUAUAUGGAGUUAGUAGUGCAACCUGCUCGGUCUGAUGAGUCCGUAGCGGGACGAAACAGC [GUAGCG], the “normalized RNA/DNA level without ligand (log10)” value in data set [1] worked out at 1.81 ± 0.022. Further, the “normalized RNA/DNA level with ligand (log10)” value in data set [2] came to 1.88 ± 0.059.

On to GCUGUCACCGAGAAACUGUGAAGUAUAUCUUAAACCUGGGCACUUAAAAGAUAUAUGGAGUUAGUAGUGCAACCUGCUCGGUCUGAUGAGUCCCUACUUGGACGAAACAGC [CUACUU], for which the “normalized RNA/DNA level without ligand (log10)” value in data set [1] was 1.56 ± 0.067. Further, the “normalized RNA/DNA level with ligand (log10)” value in data set [2] stood at 1.73 ± 0.059.

Consider GCUGUCACCGAGAAACUGUGAAGUAUAUCUUAAACCUGGGCACUUAAAAGAUAUAUGGAGUUAGUAGUGCAACCUGCUCGGUCUGAUGAGUCCGUACUUGGACGAAACAGC [GUACUU], for which, in data set [1], the “normalized RNA/DNA level without ligand (log10)” value stood at 1.7 ± 0.036. The “normalized RNA/DNA level with ligand (log10)” value in data set [2] worked out at 1.81 ± 0.15.

For GCUGUCACCGAGAAACUGUGAAGUAUAUCUUAAACCUGGGCACUUAAAAGAUAUAUGGAGUUAGUAGUGCAACCUGCUCGGUCUGAUGAGUCCAUACUUGGACGAAACAGC [AUACUU], the “normalized RNA/DNA level without ligand (log10)” value in data set [1] came out at 1.658 ± 0.0084. In data set [2], the “normalized RNA/DNA level with ligand (log10)” value was determined as 1.83 ± 0.13.

Turning to GCUGUCACCGAGAAACUGUGAAGUAUAUCUUAAACCUGGGCACUUAAAAGAUAUAUGGAGUUAGUAGUGCAACCUGCUCGGUCUGAUGAGUCCAUACUGGGACGAAACAGC [AUACUG], the “normalized RNA/DNA level without ligand (log10)” value in data set [1] was determined as 1.56 ± 0.049. Also, in data set [2], the “normalized RNA/DNA level with ligand (log10)” value is 1.73 ± 0.086.

In the case of GCUGUCACCGAGAAACUGUGAAGUAUAUCUUAAACCUGGGCACUUAAAAGAUAUAUGGAGUUAGUAGUGCAACCUGCUCGGUCUGAUGAGUCCGUAGACGGACGAAACAGC [GUAGAC], the “normalized RNA/DNA level without ligand (log10)” value in data set [1] was determined as 1.595 ± 0.0029. Also, in data set [2], the “normalized RNA/DNA level with ligand (log10)” value was found to be 1.79 ± 0.13.

On to GCUGUCACCGAGAAACUGUGAAGUAUAUCUUAAACCUGGGCACUUAAAAGAUAUAUGGAGUUAGUAGUGCAACCUGCUCGGUCUGAUGAGUCCAUAGCGGGACGAAACAGC [AUAGCG], for which the “normalized RNA/DNA level without ligand (log10)” value in data set [1] is 1.73 ± 0.02. Besides, the “normalized RNA/DNA level with ligand (log10)” value in data set [2] was determined as 1.85 ± 0.15.

For the variant GCUGUCACCGAGAAACUGUGAAGUAUAUCUUAAACCUGGGCACUUAAAAGAUAUAUGGAGUUAGUAGUGCAACCUGCUCGGUCUGAUGAGUCCAUAGCAGGACGAAACAGC [AUAGCA], the “normalized RNA/DNA level without ligand (log10)” value in data set [1] is 1.71 ± 0.043. For the same variant, the “normalized RNA/DNA level with ligand (log10)” value in data set [2] turned out to be 1.81 ± 0.15.

Consider GCUGUCACCGAGAAACUGUGAAGUAUAUCUUAAACCUGGGCACUUAAAAGAUAUAUGGAGUUAGUAGUGCAACCUGCUCGGUCUGAUGAGUCCAUAGCCGGACGAAACAGC [AUAGCC], for which the “normalized RNA/DNA level without ligand (log10)” value in data set [1] amounted to 1.76 ± 0.022. Further, the “normalized RNA/DNA level with ligand (log10)” value in data set [2] is 1.87 ± 0.095.

As for GCUGUCACCGAGAAACUGUGAAGUAUAUCUUAAACCUGGGCACUUAAAAGAUAUAUGGAGUUAGUAGUGCAACCUGCUCGGUCUGAUGAGUCCCUAGAUGGACGAAACAGC [CUAGAU], the “normalized RNA/DNA level without ligand (log10)” value in data set [1] is 1.65 ± 0.017. Further, in data set [2], the “normalized RNA/DNA level with ligand (log10)” value worked out at 1.79 ± 0.069.

Consider GCUGUCACCGAGAAACUGUGAAGUAUAUCUUAAACCUGGGCACUUAAAAGAUAUAUGGAGUUAGUAGUGCAACCUGCUCGGUCUGAUGAGUCCCUAGAGGGACGAAACAGC [CUAGAG], for which the “normalized RNA/DNA level without ligand (log10)” value in data set [1] is 1.589 ± 0.011. The “normalized RNA/DNA level with ligand (log10)” value in data set [2] came to 1.74 ± 0.08.

For the variant GCUGUCACCGAGAAACUGUGAAGUAUAUCUUAAACCUGGGCACUUAAAAGAUAUAUGGAGUUAGUAGUGCAACCUGCUCGGUCUGAUGAGUCCUUACUUGGACGAAACAGC [UUACUU], the “normalized RNA/DNA level without ligand (log10)” value in data set [1] came out at 1.68 ± 0.022. For the same variant, in data set [2], the “normalized RNA/DNA level with ligand (log10)” value was found to be 1.83 ± 0.11.

Turning to GCUGUCACCGAGAAACUGUGAAGUAUAUCUUAAACCUGGGCACUUAAAAGAUAUAUGGAGUUAGUAGUGCAACCUGCUCGGUCUGAUGAGUCCUUACUGGGACGAAACAGC [UUACUG], the “normalized RNA/DNA level without ligand (log10)” value in data set [1] was found to be 1.67 ± 0.016. Also, the “normalized RNA/DNA level with ligand (log10)” value in data set [2] is 1.84 ± 0.096.

As to GCUGUCACCGAGAAACUGUGAAGUAUAUCUUAAACCUGGGCACUUAAAAGAUAUAUGGAGUUAGUAGUGCAACCUGCUCGGUCUGAUGAGUCCUUAGACGGACGAAACAGC [UUAGAC], in data set [1], the “normalized RNA/DNA level without ligand (log10)” value came to 1.702 ± 0.0078. The “normalized RNA/DNA level with ligand (log10)” value in data set [2] was found to be 1.83 ± 0.1.

As to GCUGUCACCGAGAAACUGUGAAGUAUAUCUUAAACCUGGGCACUUAAAAGAUAUAUGGAGUUAGUAGUGCAACCUGCUCGGUCUGAUGAGUCCUUAGAUGGACGAAACAGC [UUAGAU], the “normalized RNA/DNA level without ligand (log10)” value in data set [1] amounted to 1.7 ± 0.031. Moreover, the “normalized RNA/DNA level with ligand (log10)” value in data set [2] was determined as 1.83 ± 0.082.

With GCUGUCACCGAGAAACUGUGAAGUAUAUCUUAAACCUGGGCACUUAAAAGAUAUAUGGAGUUAGUAGUGCAACCUGCUCGGUCUGAUGAGUCCUUAGAGGGACGAAACAGC [UUAGAG], the “normalized RNA/DNA level without ligand (log10)” value in data set [1] is 1.63 ± 0.0024. The “normalized RNA/DNA level with ligand (log10)” value in data set [2] stood at 1.76 ± 0.047.

As to GCUGUCACCGAGAAACUGUGAAGUAUAUCUUAAACCUGGGCACUUAAAAGAUAUAUGGAGUUAGUAGUGCAACCUGCUCGGUCUGAUGAGUCCUUAGAAGGACGAAACAGC [UUAGAA], the “normalized RNA/DNA level without ligand (log10)” value in data set [1] turned out to be 1.56 ± 0.043. In addition, in data set [2], the “normalized RNA/DNA level with ligand (log10)” value stood at 1.73 ± 0.088.
